Measured values published in patent US9388233.

Target: I-SceI mutants selected from G13/P14/N15/K20 saturation library (UniProt P03882)
Experiment: cell_activity
Settings: first selection round, library pool; individual mutants not given

UniProt P03882, sequence (P03882 whole entry, change not shown): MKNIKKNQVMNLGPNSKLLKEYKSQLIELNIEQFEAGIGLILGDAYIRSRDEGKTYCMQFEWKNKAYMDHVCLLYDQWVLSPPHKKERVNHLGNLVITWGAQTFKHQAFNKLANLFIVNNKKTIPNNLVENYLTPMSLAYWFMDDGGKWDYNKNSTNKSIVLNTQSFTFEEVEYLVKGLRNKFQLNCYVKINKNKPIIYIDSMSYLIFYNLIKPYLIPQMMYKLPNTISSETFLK

TAGGGATAACAGGGGTCT (double strand) [T3i1]
activity (fold cell survival vs wild type): 10
